Assay results published in publication PMC7751889 (Molecular cell, 2019).

Target: T1, Med15 (residues 1-651 Δ239-271, Δ373-483), mediator component (yeast, UniProt P19659 1-651, Δ239–271 | Δ373–483)
T1 sequence (looked up): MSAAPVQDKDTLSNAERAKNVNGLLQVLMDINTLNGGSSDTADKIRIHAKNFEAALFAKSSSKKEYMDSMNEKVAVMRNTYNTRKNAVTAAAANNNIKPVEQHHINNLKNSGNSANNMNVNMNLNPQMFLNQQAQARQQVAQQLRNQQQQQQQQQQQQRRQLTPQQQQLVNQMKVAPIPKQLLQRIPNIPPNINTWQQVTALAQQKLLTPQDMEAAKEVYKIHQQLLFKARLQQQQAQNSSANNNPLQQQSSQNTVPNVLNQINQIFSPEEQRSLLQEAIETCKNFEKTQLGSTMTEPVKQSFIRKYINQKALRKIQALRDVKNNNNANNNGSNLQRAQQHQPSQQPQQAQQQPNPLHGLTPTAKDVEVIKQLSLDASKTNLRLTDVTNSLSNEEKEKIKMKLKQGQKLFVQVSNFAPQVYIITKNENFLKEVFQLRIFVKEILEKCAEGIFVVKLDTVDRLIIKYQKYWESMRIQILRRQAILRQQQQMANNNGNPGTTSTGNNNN
Test: BLI

B1: Met4 (residues 76 to 160), containing both the UIM and the UIML domains (tandem UBD) (domain or fragment, yeast, UniProt P32389 76-160, looked up)
chain: GNTNLYDHAVTPEILLEQLAYVDNFIPSLDNEFSNVDWNVNTTHNNANNNGADTFSSINANPFDLDEQLAIELSAFADDSFIFPD
modifications: biotin on the Avi tag (BirA)
Kd: 100 nM
